Measured values published in article PMC11087509, “Multimodal binding and inhibition of bacterial ribosomes by the antimicrobial peptides Api137 and Api88” (Nature Communications, 2024).
[ ]: non-standard residue; d: D form.

Molecular target: purified E. coli 30S ribosomal subunit (E. coli (endogenous in MRE600))
Assay: fluorescence polarisation; cf-labeled peptide (10 µL of 40 nmol/L) added to a 2-fold dilution series (22 steps, 10 µL) of pure 70S ribosome, 50S or 30S subunit; ribosome preparation buffer (20 mmol/L HEPES-KOH, 6 mmol/L MgCl2, 30 mmol/L NH4Cl, pH 7.6); 28 ± 1 °C, 90 min; apparent Kd (average over at least two or three sites)

## {5(6)‑carboxyfluorescein}-VDKPPYLPRPRPPR[dR]IYN[dR]-NH2 [cf-Onc112 (5(6)-carboxyfluorescein-labeled Onc112, …rIYNr-NH2)]
  fold weaker binding than to the 50S subunit: 23 fold
